Data taken from US20240343810A1 (published 2024).

T1: Biotinylated human ICOS protein (human, UniProt Q9Y6W8 21-140, limits assumed, biotinylated (sites not given))
T1 construct: Captured on the NLC chip in the avidity SPR
T1 sequence: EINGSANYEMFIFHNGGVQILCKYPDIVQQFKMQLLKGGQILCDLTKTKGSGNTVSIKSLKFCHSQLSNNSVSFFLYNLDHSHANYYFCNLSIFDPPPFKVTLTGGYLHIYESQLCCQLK


What was measured:
[1] = biological target: T1, Biotinylated human ICOS protein; experiment: SPR ProteOn avidity format, biotinylated human ICOS on NLC chip; calculated on-rate
Method: (§1) Biotinylated human ICOS protein diluted at 7.5 μg/mL in running buffer (1× HBS-EP+ Buffer Technova, cat. No. H8022) was captured on a NLC sensor chip (Bio-Rad, cat No 1765021). The surface was then blocked using biocytin (Sigma Aldrich, cat No B1758) at 1 mg/mL.
(§2) The assay was carried out at 25° C.
The buffer injection (i.e. 0 nM) was used to double reference the sensorgrams. […]

[2] = biological target: T1, Biotinylated human ICOS protein; experiment: SPR ProteOn avidity format, biotinylated human ICOS on NLC chip, antibody analyte, 25 C
Method: as §1, §2
(§3) The buffer injection (i.e. 0 nM) was used to double reference the sensorgrams. The analysis was carried out using the equilibrium model inherent to the ProteOn's analysis software for each mAb² construct.

[3] = biological target: T1, Biotinylated human ICOS protein; experiment: SPR ProteOn avidity format, biotinylated human ICOS on NLC chip, antibody analyte; apparent KD from equilibrium, 25 C
Method: as §1, §2, §3

Binder	kon [1]	koff [2]	Kd [3]
STIM001_289_LAGA (bispecific antibody, V domains shown, not shown: a dimerising Fc or GST) VH: QVQVVQSGAEVKKPGASVKVSCKASGYTFSTFGITWVRQAPGQGLEWMGWISAYNGDTNYAQNLQGRVIMTTDTSTSTAYMELRSLRSDDTAVYYCARSSGHYYYYGMDVWGQGTTVTVSS VL: DIVMTQSPLSLPVTPGEPASISCRSSQSLLHSNEYNYLDWYLQKPGQSPQLLIFLGSNRASGVPDRFSGSGSGTDFTLKITRVEAEDVGIYYCMQSLQTPLTFGGGTKVEIK	13900 M⁻¹ s⁻¹	0.000354 s⁻¹	25.4 nM
STIM001_457_LAGA (bispecific antibody, V domains shown, not shown: a dimerising Fc or GST, LAGA variant of STIM001_457) VH: QVQVVQSGAEVKKPGASVKVSCKASGYTFSTFGITWVRQAPGQGLEWMGWISAYNGDTNYAQNLQGRVIMTTDTSTSTAYMELRSLRSDDTAVYYCARSSGHYYYYGMDVWGQGTTVTVSS VL: DIVMTQSPLSLPVTPGEPASISCRSSQSLLHSNEYNYLDWYLQKPGQSPQLLIFLGSNRASGVPDRFSGSGSGTDFTLKITRVEAEDVGIYYCMQSLQTPLTFGGGTKVEIK	31300 M⁻¹ s⁻¹	0.000332 s⁻¹	10.6 nM

Next, values leading:

kon [1]	koff [2]	Kd [3]	Binder
477000 M⁻¹ s⁻¹	0.000278 s⁻¹	0.6 nM	STIM003_289_LAGA (bispecific antibody, V domains shown, not shown: a dimerising Fc or GST, LAGA variant of STIM003_289) VH: EVQLVESGGGVVRPGGSLRLSCVASGVTFDDYGMSWVRQAPGKGLEWVSGINWNGGDTDYSDSVKGRFTISRDNAKNSLYLQMNSLRAEDTALYYCARDFYGSGSYYHVPFDYWGQGILVTVSS VL: EIVLTQSPGTLSLSPGERATLSCRASQSVSRSYLAWYQQKRGQAPRLLIYGASSRATGIPDRFSGDGSGTDFTLSISRLEPEDFAVYYCHQYDMSPFTFGPGTKVDIK
284000 M⁻¹ s⁻¹	0.000232 s⁻¹	0.8 nM	STIM003_457_LAGA (bispecific antibody, V domains shown, not shown: a dimerising Fc or GST, LAGA variant of STIM003_457) VH: EVQLVESGGGVVRPGGSLRLSCVASGVTFDDYGMSWVRQAPGKGLEWVSGINWNGGDTDYSDSVKGRFTISRDNAKNSLYLQMNSLRAEDTALYYCARDFYGSGSYYHVPFDYWGQGILVTVSS VL: EIVLTQSPGTLSLSPGERATLSCRASQSVSRSYLAWYQQKRGQAPRLLIYGASSRATGIPDRFSGDGSGTDFTLSISRLEPEDFAVYYCHQYDMSPFTFGPGTKVDIK
